Values quoted from earlier work, collected in paper PMC7143314.

Molecular target: RAF RBD (Homo sapiens) (UniProt P04049)

Kd: 20 nM
Substance: RAS (from UniProt P01116)
